Experimental data reported in publication PMC6107515.
pKd: −log10 of the molar value. Read-outs that look alike come from different tables or passages of the source.

Tests used:
[1] = target: human complement Factor H (human) (UniProt P08603); assay: SPR; Biacore X100; FH coupled to a CM4 chip, recombinant PspCs injected at five increasing concentrations (kinetic titration); PBS-P+ buffer; fitted with a 1:1 binding model
[2] = target: human complement Factor H (human) (UniProt P08603); assay: as above; remark: listed apart in the source

Chain of human complement Factor H (human) (P08603 19-1231): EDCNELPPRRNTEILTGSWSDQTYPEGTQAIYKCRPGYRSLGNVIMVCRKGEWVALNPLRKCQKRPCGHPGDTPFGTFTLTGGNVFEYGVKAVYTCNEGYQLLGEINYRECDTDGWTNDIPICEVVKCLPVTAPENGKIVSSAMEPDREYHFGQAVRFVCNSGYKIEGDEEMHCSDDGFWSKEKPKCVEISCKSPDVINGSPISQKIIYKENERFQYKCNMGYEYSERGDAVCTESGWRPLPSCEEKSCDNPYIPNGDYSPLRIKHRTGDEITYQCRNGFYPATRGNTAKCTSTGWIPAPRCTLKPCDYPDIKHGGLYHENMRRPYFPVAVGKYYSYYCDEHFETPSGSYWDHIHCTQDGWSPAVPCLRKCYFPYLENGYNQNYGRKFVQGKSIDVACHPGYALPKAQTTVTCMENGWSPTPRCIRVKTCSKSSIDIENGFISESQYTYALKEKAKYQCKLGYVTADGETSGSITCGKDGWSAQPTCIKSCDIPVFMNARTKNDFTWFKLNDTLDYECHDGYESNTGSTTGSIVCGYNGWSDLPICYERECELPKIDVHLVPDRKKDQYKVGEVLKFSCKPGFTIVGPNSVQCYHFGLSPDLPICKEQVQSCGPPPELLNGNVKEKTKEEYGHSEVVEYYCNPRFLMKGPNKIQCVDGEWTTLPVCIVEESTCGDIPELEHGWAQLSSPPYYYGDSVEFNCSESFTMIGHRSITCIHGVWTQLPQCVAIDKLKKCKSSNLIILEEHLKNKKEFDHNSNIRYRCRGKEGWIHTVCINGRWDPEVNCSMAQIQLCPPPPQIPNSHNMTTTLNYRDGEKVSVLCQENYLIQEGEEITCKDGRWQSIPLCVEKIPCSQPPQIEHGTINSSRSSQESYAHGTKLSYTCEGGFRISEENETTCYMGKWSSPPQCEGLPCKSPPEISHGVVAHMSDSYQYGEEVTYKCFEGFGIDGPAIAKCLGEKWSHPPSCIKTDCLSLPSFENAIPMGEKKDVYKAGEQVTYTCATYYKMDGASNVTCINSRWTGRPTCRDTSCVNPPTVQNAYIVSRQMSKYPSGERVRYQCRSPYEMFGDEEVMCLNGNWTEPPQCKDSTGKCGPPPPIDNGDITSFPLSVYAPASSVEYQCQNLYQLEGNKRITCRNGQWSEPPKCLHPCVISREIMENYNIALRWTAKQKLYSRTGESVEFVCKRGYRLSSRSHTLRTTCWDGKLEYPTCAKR

recombinant PspC (D39) (domain or fragment)
pKd [1]: 10.07 | koff [1]: 4.3e-05 s⁻¹ | kon [1]: 480000 M⁻¹ s⁻¹ | pKd [2]: 10.05
